Data taken from paper PMC10296094 (Cancers, 2023).
Where no end group is shown, it is not given here.

Biological target: T1, His6-tagged human centrin1 (human, UniProt Q12798 1-172)
T1 sequence (looked up): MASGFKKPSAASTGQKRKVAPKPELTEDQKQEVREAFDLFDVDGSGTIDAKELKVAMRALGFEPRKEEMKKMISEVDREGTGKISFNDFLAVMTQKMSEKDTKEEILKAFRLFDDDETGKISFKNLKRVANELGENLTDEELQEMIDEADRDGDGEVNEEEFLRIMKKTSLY
Assay: fluorescence polarisation; fluorescence anisotropy; 2-fold dilution series of centrin1, 100 nM Sfi1 peptide; 10 mM HEPES pH 7.4, 100 mM CaCl2, 0.005% v/v Tween 20; 45 min at RT
Details: both partners purified

B1: fluorescein-labelled Sfi1 peptide (peptide)
peptide: REVAARESQHNRQLLRGALRRWK
modifications: not fully specified (residue 23)
notes: Sfi1 (mitotic spindle regulator), human, residues 670-692; also called F-Sfi1
  Kd: 30 ± 12 nM
